Legend:
LCLC-103H cells = experiment: In vitro cytotoxicity (CellTiter-Glo, 5 days); format: cell-based, human; conditions: MMAE-conjugated antibodies
MDA-MB-231 cells = experiment: In vitro cytotoxicity (CellTiter-Glo, 5 days); format: cell-based, human; conditions: MMAE-conjugated antibodies
[1] = test system: LCLC-103H xenograft tumors; experiment: LCLC-103H xenograft model; format: in vivo, SCID mice
Method: 5 × 10^6 LCLC-103H (large cell lung carcinoma) tumor cells (obtained from Leibniz-Institut DSMZ-Deutsche Sammlung von Mikroorganismen und Zellkulturen GmbH (DSMZ)) in 200 µL PBS were injected subcutaneously in the right flank of female SCID mice. Starting 14-21 days after tumor cell inoculation, when the average tumor size was >100-200 mm^3 and distinct tumor growth was observed, a single injection with 1 mg/kg (20 µg/mouse) IgG1-AXL-vcMMAE antibodies (as described in Supplementary Example 1) or control (unconjugated IgG1-b12) was given intraperitoneally (100 µL/mouse). Tumor volume was determined at least two times per week. Tumor volumes (mm^3) were calculated from caliper (PLEXX) measurements as: 0.52 × (length) × (width)^2.
(§1) Tumor induction was performed by subcutaneous injection of 5 × 10^6 A431 or LCLC-103H tumor cells (both obtained from Leibniz-Institut - Deutsche Sammlung von Mikroorganismen und Zellkulturen GmbH (DSMZ)) in 200 µL PBS in the right flank of female SCID mice. Treatment was started 14-21 days after tumor cell inoculation, when the average tumor size was >100-200 mm^3 and distinct tumor growth was observed. Mice received a single injection or a total of 4 biweekly intraperitoneal injections with IgG1-AXL-vcMMAE ADCs or control antibody (unconjugated IgG1-b12), as indicated. Tumor volume was determined at least two times per week. Tumor volumes (mm^3) were calculated from caliper (PLEXX) measurements as: 0.52 × (length) × (width)^2.

PAXF1657 tumors = experiment: PAXF1657 pancreas cancer PDX model; format: in vivo, NMRI nu/nu mice
A431 tumors = experiment: A431 xenograft model (high Gas6); format: in vivo, SCID mice; conditions: 3 mg/kg
Method: as §1

A431 cells = conditions: MMAE-conjugated antibodies, 5 days

B1: IgG1-AXL-148-vcMMAE (conjugate)
VH: EVQLLESGGGLVQPGGSLRLSCAASGFTFSSYAMTWVRQAPGKGLEWVSAISISGGSTFYADSVKGRFTISRDNSKNTLYLQMNSLRAEDTAVYYCRGYSGYVYDAFDFWGQGTMVTVSS
VL: DIQMTQSPSSLSASVGDRVTITCRASQGISNWLAWYQQKPEKAPKSLIYAASSLQSGVPSRFSGSGSGTDFTLTISSLQPEDFATYYCQQYNSYPLTFGGGTKVEIK
Cytotoxicity in LCLC-103H cells EC50 (LCLC-103H cells): 0.012 µg/mL | Cytotoxicity EC50 (µg/mL) MDA-MB231 (n=2) Mean (MDA-MB-231 cells): 0.012 µg/mL | anti-tumor activity in the LCLC-103H xenograft model ([1]; 3 mg/kg (Example 13, FIG. 14A)): tumor regression | anti-tumor activity in established SC LCLC-103H tumors ([1]; single injection 1 mg/kg intraperitoneally (Example 9)): tumor regression | growth of PAXF1657 tumors compared to the control group (PAXF1657 tumors; 2 mg/kg i.v., day 0): significantly reduced the growth | growth of PAXF1657 tumors (PAXF1657 tumors; 4 mg/kg i.v., day 0): induced tumor regression | anti-tumor activity in the PAXF1657 model (FIG. 10B, 10C) (PAXF1657 tumors; mouse, in vivo): dose-dependent antitumor activity | anti-tumor activity in the A431 xenograft model (A431 tumors): growth inhibition | Cytotoxicity EC50 (µg/mL) A431 (n=3) Mean (A431 cells): 0.070 µg/mL

From patent US20230321261A1, “AXL-SPECIFIC ANTIBODY-DRUG CONJUGATES FOR CANCER TREATMENT” (GENMAB A/S, priority 2016, published 2023)
